In patent publication US20130280279A1, “PHARMACEUTICAL COMPOSITION OF A COMPLEX OF AN ANTI-DIG ANTIBODY AND DIGOXIGENIN THAT IS CONJUGATED TO A PEPTIDE” (HOFFMANN-LA ROCHE INC., priority 2011, published 2013):

What was measured:
[1] = molecular target: digoxigenated nucleic acids (siRNA-Dig); experiment: SPR (Biacore) binding to digoxigenated nucleic acids; conditions: 25° C., read-out: Kd towards digoxigenated nucleic acids (siRNA-Dig)
Procedure: For that, binding properties of the recombinant <Dig> derivatives were analyzed by surface plasmon resonance (SPR) technology using a Biacore T100 or Biacore 3000 instrument (GE Healthcare Bio-Sciences AB, Uppsala). This system is well established for the study of molecule interactions. It allows a continuous real-time monitoring of ligand/analyte bindings and thus the determination of association rate constants (ka), dissociation rate constants (kd), and equilibrium constants (KD) in various assay settings. SPR-technology is based on the measurement of the refractive index close to the surface of a gold coated biosensor chip. Changes in the refractive index indicate mass changes on the surface caused by the interaction of immobilized ligand with analyte injected in solution. […]
Anti-mouse IgG antibody was immobilized on the surface of a CM5 biosensor chip in the same fashion as described above. […] The samples to be analyzed were diluted in HBS-P (10 mM HEPES, pH 7.4, 150 mM NaCl, 0.005% Surfactant P20) and injected at a flow rate of 5 μl/min. […] Signals were detected at a rate of one signal per second. […]
Anti-mouse and anti-human IgG antibodies were immobilized on the surface of a CM5 biosensor chip in the same fashion as described above. The samples to be analyzed were diluted in HBS-P and injected at a flow rate of 5 μl/min. […]

DIG-myoglobin = experiment: SPR binding to mono-digoxigenated protein DIG-myoglobin
Procedure: Further SPR studies were performed in which the binding affinity of the humanized <DIG>-IgG, IGF1R-DIG and the murine <DIG>M-19-11 was compared in binding to a mono-digoxigenated protein DIG-myoglobin.

Row | Kd [1] | affinity to DIG-Myo compared with the humanized derivatives (DIG-myoglobin) | Molecule
1 | 0.269 nM | clearly better | murine DIG-IgG 19-11: monoclonal murine <Dig> IgG1 kappa antibody from hybridoma clone 19-11 (antibody, V domains shown) VH: EVQLVESGGGLVKPGGSLKLSCAVSGFTFSDYAMSWIRQTPENRLEWVASINIGATYAYYPDSVKGRFTISRDNAKNTLFLQMSSLGSEDTAMYYCARPGSPYEYDKAYYSMAYWGPGTSVTVSS VL: DVQMTQSTSSLSASLGDRVTISCRASQDIKNYLNWYQQKPGGTVKLLIYYSSTLLSGVPSRFSGRGSGTDFSLTITNLEREDIATYFCQQSITLPPTFGGGTKLEIK
2 | 12 nM |  | humanized DIG-IgG: humanized IgG with the binding specificity of murine <Dig> 19-11 (antibody, V domains shown) VH: QVQLVESGGGLVKPGGSLRLSCAASGFTFSDYAMSWIRQAPGKGLEWVSSINIGATYIYYADSVKGRFTISRDNAKNSLYLQMNSLRAEDTAVYYCARPGSPYEYDKAYYSMAYWGQGTTVTVSS VL: DIQMTQSPSSLSASVGDRVTITCRASQDIKNYLNWYQQKPGKAPKLLIYYSSTLLSGVPSRFSGSGSGTDFTLTISSLQPEDFATYYCQQSITLPPTFGGGTKVEIKR
